Data: the supplement of paper PMC7877785
± gives the uncertainty stated by the source.

Assay: self-splicing fitness, log relative to wild type (ln ratio); higher = more splicing; Tetrahymena group I intron in knt gene, E. coli kanamycin selection, DiMSum; sequences stand for … in CUCUCU…GGAGGGAAAAGUUAUCAGGCAUGCACCUGGUAGCUAGUCUUUAAACCAAUAGAUUGCAUCGGUUUAAAAGGCAAGACCGUCAAAUUGCGGGAAAGGGGUCAACAGCCGUUCAGUACCAAGUCUCAGGGGAAACUUUGAGAUGGCCUUGCAAAGGGUAUGGUAAUAAGCUGACGGACAUGGUCCUAACCACGCAGCCAAGUCCUAAGUCAACAGAUCUUCUGUUGAUAUGGAUGCAGUUCACAGACUAAAUGUCGGUCGGGGAAGAUGUAUUCUUCUCAUAAGAUAUAGUCGGACCUCUCCUUAAUGGGAGCUAGCGGAUGAAGUGAUGCAACACUGGAGCCGCUGGGAACUAAUUUGUAUGCGAAAGUAUAUUGAUUAGUUUUGGAGUACUCGUGGUCG
In short: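 DiMSum derived fitness as the error-weighted combination of fold changes across replicates, kanamycin versus no kanamycin, normalised to wild type. E. coli BL21(DE3) held the library, which randomised all eight P1ex-region intron nucleotides within the knt kanamycin-resistance gene on pET-22b(+). Six replicate transformations grew overnight at 37°C or 30°C on LB agar with or without 25 μg/mL kanamycin, also containing 100 μg/mL carbenicillin, 50 μM IPTG and 0.2% rhamnose, and pooled colonies were amplicon-sequenced on an Illumina HiSeq 2500.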

Sequence	self-splicing fitness (ln) (30 °C)	self-splicing fitness (ln) (37 °C)
GCAGAGCAAUAUUACGGCUG	-2.42 ± 0.25	
GCAGAGCAAUAUUACGGGUG	-2.91 ± 0.22	-1.82 ± 0.16
GCAGAGCAAUAUUACGGUAA	-3.52 ± 0.27	-2.36 ± 0.21
GCAGAGCAAUAUUACGGUAG	-1.82 ± 0.27	-0.285 ± 0.44
GCAGAGCAAUAUUACGUCCG	-2.57 ± 0.14	-2.51 ± 0.17
GCAGAGCAAUAUUACGUCUU	-0.897 ± 0.12	-2.22 ± 0.21
GCAGAGCAAUAUUACGUUCA	-2.06 ± 0.13	-0.713 ± 0.1
GCAGAGCAAUAUUACGUUGC		-1.06 ± 0.43
GCAGAGCAAUAUUACGUUUU	-3.54 ± 0.17	-3.12 ± 0.2
GCAUAGCAAUAUUACGACCA	-0.207 ± 0.11	-0.544 ± 0.14
GCAUAGCAAUAUUACGAUGU	-2.82 ± 0.13	-2.31 ± 0.17
GCAUAGCAAUAUUACGAUUA	-1.47 ± 0.18	0.017 ± 0.15
GCAUAGCAAUAUUACGCAAU	-2.37 ± 0.11	-1.77 ± 0.12
GCAUAGCAAUAUUACGCAGU	-4.08 ± 0.17	-1.81 ± 0.12
GCAUAGCAAUAUUACGCCGA		-2.37 ± 0.25
GCAUAGCAAUAUUACGCCGU	-3.07 ± 0.15	-1.83 ± 0.14
GCAUAGCAAUAUUACGCCUA	-1.83 ± 0.13	-1.39 ± 0.12
GCAUAGCAAUAUUACGCGAC	-2.79 ± 0.16	0.0921 ± 0.13
GCAUAGCAAUAUUACGCGUG	-3.46 ± 0.2	-2.64 ± 0.28
GCAUAGCAAUAUUACGCUUG	-3.29 ± 0.21	-2.64 ± 0.31
GCAUAGCAAUAUUACGGAGA	-4.01 ± 0.37	-3.02 ± 0.33
GCAUAGCAAUAUUACGGAGU	-3.52 ± 0.14	-1.86 ± 0.11
GCAUAGCAAUAUUACGGCCC	-0.542 ± 0.32	-0.431 ± 0.37
GCAUAGCAAUAUUACGGGUC	-3.17 ± 0.14	-2.71 ± 0.17
GCAUAGCAAUAUUACGGUGU	-4.14 ± 0.23	-2.47 ± 0.2
GCAUAGCAAUAUUACGUAAA	-2.43 ± 0.074	-1.05 ± 0.08

Sequence	self-splicing fitness (ln) (30 °C)	self-splicing fitness (ln) (37 °C)
GCAUAGCAAUAUUACGUAUU	-3.09 ± 0.16	-2.04 ± 0.17
GCAUAGCAAUAUUACGUCCU	-1.16 ± 0.12	-0.534 ± 0.15
GCAUAGCAAUAUUACGUCUA	-0.451 ± 0.14	-0.993 ± 0.13
GCAUAGCAAUAUUACGUGCG	-2.26 ± 0.1	-1.91 ± 0.14
GCAUAGCAAUAUUACGUUAU	-2.61 ± 0.16	-3.08 ± 0.27
GCCAAGCAAUAUUACGAAGC	-2.7 ± 0.12	-2.51 ± 0.17
GCCAAGCAAUAUUACGACAU	-2.357 ± 0.015	-1.37 ± 0.033
GCCAAGCAAUAUUACGACGG	-3.8 ± 0.23	-2.55 ± 0.21
GCCAAGCAAUAUUACGAUAG	-3.28 ± 0.36	-2.43 ± 0.25
GCCAAGCAAUAUUACGAUCU	-1.94 ± 0.13	-0.903 ± 0.098
GCCAAGCAAUAUUACGAUUC	-0.96 ± 0.062	-0.482 ± 0.082
GCCAAGCAAUAUUACGCACU	-0.915 ± 0.077	-0.196 ± 0.097
GCCAAGCAAUAUUACGCAUU	-1.35 ± 0.072	-0.715 ± 0.081
GCCAAGCAAUAUUACGCCGG	-2.18 ± 0.26	-2.13 ± 0.4
GCCAAGCAAUAUUACGCGCG	-1.87 ± 0.13	-0.932 ± 0.14
GCCAAGCAAUAUUACGCGGC	-3.04 ± 0.22	-3.03 ± 0.43
GCCAAGCAAUAUUACGCGUU	-0.424 ± 0.059	0.358 ± 0.079
GCCAAGCAAUAUUACGGAAG	-3.55 ± 0.34	-2.57 ± 0.33
GCCAAGCAAUAUUACGGAAU	-1.8 ± 0.15	-0.618 ± 0.15
GCCAAGCAAUAUUACGGACG	-1.6 ± 0.14	0.0859 ± 0.18
GCCAAGCAAUAUUACGGCGC	-1.36 ± 0.11	-0.697 ± 0.15
GCCAAGCAAUAUUACGGGAU	-0.936 ± 0.075	-0.693 ± 0.099
GCCAAGCAAUAUUACGGGGC	-3.69 ± 0.22	-2.85 ± 0.27
GCCAAGCAAUAUUACGGGUA	-0.958 ± 0.052	-0.102 ± 0.062
GCCAAGCAAUAUUACGGUAC	-2.01 ± 0.13	-0.941 ± 0.13
GCCAAGCAAUAUUACGGUAG	-3.67 ± 0.22	-2.82 ± 0.18

Sequence	self-splicing fitness (ln) (30 °C)	self-splicing fitness (ln) (37 °C)
GCCAAGCAAUAUUACGUACU	-1.15 ± 0.098	-0.739 ± 0.12
GCCAAGCAAUAUUACGUCCC	-0.579 ± 0.15	-0.607 ± 0.3
GCCAAGCAAUAUUACGUCCG	-2.19 ± 0.33	-1.6 ± 0.32
GCCAAGCAAUAUUACGUCCU	-2.11 ± 0.11	-0.408 ± 0.12
GCCAAGCAAUAUUACGUGAA	-0.726 ± 0.068	0.0387 ± 0.09
GCCAAGCAAUAUUACGUGGG	-2.97 ± 0.1	-3.25 ± 0.13
GCCAAGCAAUAUUACGUGUU	-0.889 ± 0.049	-0.309 ± 0.06
GCCCAGCAAUAUUACGAGCC	-3.1 ± 0.24	-0.756 ± 0.15
GCCCAGCAAUAUUACGAUAA	-2.26 ± 0.11	-1.57 ± 0.13
GCCCAGCAAUAUUACGCAAC	-2.19 ± 0.091	-0.000822 ± 0.095
GCCCAGCAAUAUUACGCAUG	-3.92 ± 0.33	-2.24 ± 0.38
GCCCAGCAAUAUUACGCUAC	-3.18 ± 0.21	-2.72 ± 0.29
GCCCAGCAAUAUUACGCUAG	-3.11 ± 0.18	-2.34 ± 0.17
GCCCAGCAAUAUUACGCUCC	-0.416 ± 0.11	-0.675 ± 0.12
GCCCAGCAAUAUUACGGACU	-2.51 ± 0.16	-0.873 ± 0.21
GCCCAGCAAUAUUACGGCAA	-2.55 ± 0.19	-0.273 ± 0.11
GCCCAGCAAUAUUACGGCCC	-1.09 ± 0.18	-0.738 ± 0.32
GCCCAGCAAUAUUACGGCGA	-0.6 ± 0.082	-0.337 ± 0.1
GCCCAGCAAUAUUACGGCUG	-4.14 ± 0.2	-2.22 ± 0.15
GCCCAGCAAUAUUACGGGGA	-0.813 ± 0.082	-0.181 ± 0.099
GCCCAGCAAUAUUACGUAAG	-1.15 ± 0.072	-0.871 ± 0.1
GCCCAGCAAUAUUACGUACU	-0.0223 ± 0.1	-0.765 ± 0.15
GCCCAGCAAUAUUACGUAGC	-0.413 ± 0.07	-0.216 ± 0.079
GCCCAGCAAUAUUACGUCGU	-0.113 ± 0.066	0.0609 ± 0.072
GCCCAGCAAUAUUACGUGGC	-3.51 ± 0.22	-1.39 ± 0.19
